# No end group written: not given here.
# How the values were obtained:
# [1] = tested on: pancreatic cancer; assay: Example 3: treatment of pancreatic cancer with dually elevated CD36 and CD47; format: in vivo; details: expected
# Description: (§1) Subjects having pancreatic cancer are identified using standard clinical protocols. Samples are obtained and levels of CD36 and CD47 measured using methods known in the art. Subjects presenting with dually elevated CD36 and CD47 levels as compared to suitable controls are selected for dosing with VT1021. Subjects advancing to the treatment phase are administered VT1021. Frequency and dosage are determined in accordance with the stage and severity of disease accordingly to methods standard in the art. Tumor burden and other disease indicators are measured and data compiled using methods known in the art.
# [2] = tested on: pancreatic cancer; assay: Phase I/II clinical study: tumor burden, stable disease and days on study in pancreatic cancer (Part 2); format: in vivo, human
# Description: VT1021 was evaluated in a recently completed phase I/II open-label, multicenter, dose escalation (Part 1) and expansion (Part 2) clinical study in advanced, refractory, solid tumors including pancreatic cancer (NCT03364400). Seven subjects with pancreatic cancer were dosed in Part 1 and 32 were dosed in Part 2, 17 of which were considered evaluable as having completed ≥1 cycle of VT1021 treatment and tumor imaging during cycle 2. […] In the “expansion stage” of the VT1021-01 Study, subjects diagnosed with recurrent GBM, pancreatic cancer, ovarian cancer and other solid tumors were enrolled. They were treated with VT1021 at 11.8 mg/kg, twice weekly by IV infusion. The blood samples were collected from the clinical study at pre-treatment, 0, 2, 4, 6 hours post treatment to measure the levels of VT1021 (FIG. 2). The tumor biopsy samples prior to treatment and during treatment were collected from the clinical study to measure expression levels of biomarkers including CD36 and CD47, as well as cell surface markers for immune cell populations in the TME by immunohistochemistry assays (FIG. 3, FIG. 4, FIG. 5). The correlation between days on study and tumor shrinkage versus expression profile of CD36 and CD47 was analyzed (FIG. 4). The general expression profile of CD36 and CD47 has been assessed by IHC on Tumor Tissue Microarrays (TMAs), which contain biopsy samples collected from pancreatic cancer patients. TMAs were purchased from commercial sources, not related to the VT1021-01 clinical study. […] A waterfall plot illustrates changes in tumor burden for 14 subjects in Part 2 with pancreatic cancer with measurable disease.
# [3] = tested on: tumor microenvironment (TME) in rGBM; assay: IHC and multiplex ion beam imaging of immune cells in rGBM tumor biopsy pair; format: in vivo, human; details: rGBM subject with CR
# Excerpt: FIG. 11C is a bar graph of the change in the percentage of M1 and M2 macrophages in patient tumor tissue as determined by metal ion immunostaining.
# FIG. 11E is a bar graph depicting the fold-change in cytotoxic T lymphocytes (CTLs) in patients prior to the onset of treatment with VT1021 (pre-treatment) and during treatment with VT1021 (On-Study) as determined by metal ion immunostaining.
# FIG. 11F is a bar graph depicting the fold-change in total and monocytic myeloid derived suppressor cells (MDSCs) in patients prior to the onset of treatment with VT1021 (pre-treatment) and during treatment with VT1021 (On-Study) as determined by metal ion immunostaining.
# (§2) The blood samples were collected from GBM subjects in the expansion phase, who were treated by VT1021 at 11.8 mg/kg, twice weekly, by IV infusion. VT1021 levels were measured and analyzed among male and female subjects (FIG. 7). Days on study have been collected from the same group of subjects (FIG. 8). […] CD36 and CD47 levels have been measured by immunohistochemistry assays in the pre-treatment tumor biopsy samples of the GBM subjects (FIG. 9, FIG. 10). Levels of Tsp-1 were measured by ELISA for circulating Tsp-1 levels in the collected blood samples, and by immunohistochemistry for the level of Tsp-1 accumulated in the tumor biopsy samples (FIG. 10). The infiltration of immune and inflammatory cells, specifically, MDSCs, T cells and macrophages, were determined by immunohistochemical analysis of the levels of cell surface markers in the tumor biopsy samples of subjects (FIG. 11).
# FIG. 11A, FIG. 11B, FIG. 11C, FIG. 11D, FIG. 11E, and FIG. 11F are charts showing modulation of the immune system by VT1021 in circulation and in the TME. […] Proliferating CTLs increased ≥1.5 fold regardless of clinical response, proliferating helper T cells increased ≥1.5 fold in CR/PR and PD subjects while monocytic MDSCs (mMDSCs) and activated MDSCs decreased≤0.5 fold in all evaluable subjects. […] Percent of M1 increased 1.9-fold while M2 decreased 0.6-fold after treatment. […] CTLs increased >4 fold while total and mMDSCs […] >15 fold in the on-study biopsy compared to pre-treatment.
# [4] = tested on: GBM; assay: Example 4: treatment of GBM with dually elevated CD36 and CD47; format: in vivo; details: expected
# Description: as §1, with “GBM” for “pancreatic cancer”
# [5] = tested on: subjects with rGBM; assay: Phase I/II clinical study (NCT03364400): adverse events in subjects with recurrent GBM; format: in vivo, human
# Description: VT1021 was evaluated in a recently completed phase I/II open-label, multicenter, dose escalation (Part 1) and expansion (Part 2) clinical study in advanced, refractory, solid tumors including recurrent GBM (rGBM) (NCT03364400). Thirty-two subjects with rGBM were dosed in Part 2, 22 of which were considered evaluable as having completed ≥1 cycle of VT1021 treatment and tumor imaging during cycle 2. […]
# [6] = tested on: TSP-1; assay: TSP-1 protein by ELISA in peripheral blood mononuclear cells of rGBM subjects; format: in vivo, human; details: all evaluable subjects with rGBM
# Excerpt: FIG. 10 is a chart showing that VT1021 induces TSP-1 in the circulation and the TME. (A) Bar graph of Tsp-1 protein levels measured by ELISA in circulating MDSCs collected prior to (baseline) and after (induction) treatment with VT1021 from patients who experienced complete or partial response, stable disease, or progressive disease; (B) H&E and immunohistochemical analysis of patient tumor tissue prior to onset (pre) or during treatment with VT1021; (C) Immunohistochemical analysis depicting representative images of high levels of CD36 and CD47.
# as §2, with “7).” for “7). Days on study have been collected from the same group of subjects (FIG. 8).”
# [7] = on-study biopsy vs pre-treatment, multiplex ion beam imaging, increased
# [8] = GBM, 32 Subjects, all cycles, maximum grade, regardless of causality
substance,measurement,setting,value
"cyclic DWLPK (also: cyclic, mode of cyclisation not given here) [VT1021, 5-amino acid cyclic peptide from prosaposin; Tsp-1-inducing agent]",tumor burden compared to control subjects,[1],reduction in tumor burden
same,subjects with stable disease,"[2]; Part 2 pancreatic cancer, all dually high CD36 and CD47",3 subjects
same,subjects with reduction of tumor burden,"[2]; of 14 Part 2 pancreatic cancer subjects with measurable disease, all dually high CD36 and CD47",5 subjects
same,average time remained on the study,[2]; the 5 pancreatic cancer subjects with reduction of tumor burden (dually high),105 days
same,"M2 macrophages, fold change","[3]; biopsy pair pre-treatment vs on-study, decreased",0.6 fold
same,"Percent of M1 macrophages, fold change","[3]; biopsy pair pre-treatment vs on-study, increased",1.9 fold
same,"CTLs, fold change",[3]; [7],> 4 fold
same,"mMDSCs, fold change",[3]; [7],> 15 fold
same,"total MDSCs, fold change",[3]; [7],> 15 fold
same,tumor burden compared to control subjects,[4],reduction in tumor burden
same,"Abdominal Pain (AE), All Grades",[5]; [8],5
same,"Abdominal Pain (AE), Grade 1-2",[5]; [8],5
same,"Diarrhea (AE), All Grades",[5]; [8],4
same,"Diarrhea (AE), Grade 1-2",[5]; [8],4
same,"Fall (AE), All Grades",[5]; [8],9
same,"Fall (AE), Grade 1-2",[5]; [8],9
same,"Infusion reaction (AE), All Grades",[5]; [8],3
same,"Infusion reaction (AE), Grade 1-2",[5]; [8],3
same,"Nausea (AE), All Grades",[5]; [8],3
same,"Nausea (AE), Grade 1-2",[5]; [8],3
same,"Vomiting (AE), All Grades",[5]; [8],3
same,"Vomiting (AE), Grade 1-2",[5]; [8],2
same,"Vomiting (AE), Grade 3-4",[5]; [8],1
same,major adverse events (AEs),"[5]; phase I/II study, solid tumors including rGBM",no major adverse events
same,TSP-1 protein in peripheral blood mononuclear cells (PBMCs),[6],induced
